This note sets out measurements from article PMC6386767, “Characterization of recombinant fructose-1,6-bisphosphatase gene mutations: evidence of inhibition/activation of FBPase protein by gene mutation” (Bioscience Reports, 2019).

Substitutions are numbered along the chain they refer to. Names and notes keep the numbering of the source.

Assay type in all cases: binding
One data set deals with T1, pig kidney FBPase K112A (Sus scrofa, UniProt P00636, K113A).
T1 construct: His6 (C); made in house; host or cells: Escherichia coli BL21 (DE3)
T1 sequence (P00636 1-338 K113A): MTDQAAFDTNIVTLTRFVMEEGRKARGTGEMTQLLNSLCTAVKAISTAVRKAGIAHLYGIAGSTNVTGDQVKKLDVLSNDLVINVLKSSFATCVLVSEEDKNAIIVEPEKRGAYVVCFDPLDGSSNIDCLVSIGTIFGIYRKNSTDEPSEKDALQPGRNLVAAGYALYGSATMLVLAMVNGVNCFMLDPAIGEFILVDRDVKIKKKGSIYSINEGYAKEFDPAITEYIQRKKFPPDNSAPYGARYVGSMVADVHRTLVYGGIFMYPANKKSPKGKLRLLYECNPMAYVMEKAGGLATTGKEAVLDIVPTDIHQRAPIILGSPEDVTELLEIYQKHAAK
Briefly: Differential scanning fluorimetry, K112A mutant. The settings on record: no ligand. Here is the method: (§1) Differential scanning fluorimetry (DSF) assays were designed and implemented to run on WT and each mutant for the purpose of determining relative stabilities by melting point, and to detect structural changes in the enzymes upon ligand binding. Thermal shift assays were performed with a Light Cycler 96 System Real-Time PCR machine (Roche) using Sypro-Orange dye (Invitrogen) and thermal ramping (0.25°C per min between 20 and 85°C). […] Data were processed using the Boltzmann equation to generate sigmoidal denaturation curves, and average Tm/ΔTm values were calculated as previously described using GraphPad Prism software package.
For orientation: Differential scanning fluorimetry follows unfolding on heating by fluorescence.

A further data set has as its target T2, pig kidney FBPase Y164A (Sus scrofa, UniProt P00636, Y165A).
T2 construct: His6 (C); made in house; host or cells: Escherichia coli BL21 (DE3)
T2 sequence (P00636 1-338 Y165A): T1 sequence (P00636 1-338 K113A) with A113K, Y165A
Briefly: Differential scanning fluorimetry, Y164A mutant. The settings on record: enzyme Y164A 5 µM, no ligand. Here is the method: as §1

The target of another data set is T3, pig kidney FBPase M177A (Sus scrofa, UniProt P00636, M178A).
T3 construct: His6 (C); made in house; host or cells: Escherichia coli BL21 (DE3)
T3 sequence (P00636 1-338 M178A): T1 sequence (P00636 1-338 K113A) with A113K, M178A
Description: Differential scanning fluorimetry, M177A mutant. Particulars: enzyme M177A 5 µM, no ligand. The method, then: as §1

In a further data set the target is T4, pig kidney FBPase WT (Sus scrofa, UniProt P00636).
T4 construct: His6 (C); made in house; host or cells: Escherichia coli BL21 (DE3)
T4 sequence (P00636 1-338): T1 sequence (P00636 1-338 K113A) with A113K
Description: Differential scanning fluorimetry, WT enzyme. Particulars: enzyme WT 5 µM, no ligand. The method, then:
as §1

Another data set addresses T5, pig kidney FBPase M248D (Sus scrofa, UniProt P00636, M249D).
T5 construct: His6 (C); made in house; host or cells: Escherichia coli BL21 (DE3)
T5 sequence (P00636 1-338 M249D): T1 sequence (P00636 1-338 K113A) with A113K, M249D
Briefly: Differential scanning fluorimetry, M248D mutant. Particulars: enzyme M248D 5 µM, no ligand. Here is the method: as §1

Another data set deals with T6, pig kidney FBPase Y113A (Sus scrofa, UniProt P00636, Y114A).
T6 construct: His6 (C); made in house; host or cells: Escherichia coli BL21 (DE3)
T6 sequence (P00636 1-338 Y114A): T1 sequence (P00636 1-338 K113A) with A113K, Y114A
Briefly: Differential scanning fluorimetry, Y113A mutant. Particulars: no ligand. Here is the method:
as §1

Another data set concerns the target T7, pig kidney FBPase L73A (Sus scrofa, UniProt P00636, L74A).
T7 construct: His6 (C); made in house; host or cells: Escherichia coli BL21 (DE3)
T7 sequence (P00636 1-338 L74A): T1 sequence (P00636 1-338 K113A) with L74A, A113K
Briefly: Differential scanning fluorimetry, L73A mutant. The settings on record: enzyme L73A 5 µM, no ligand. The method, then: as §1

Another data set deals with T8, pig kidney FBPase L56A (Sus scrofa, UniProt P00636, L57A).
T8 construct: His6 (C); made in house; host or cells: Escherichia coli BL21 (DE3)
T8 sequence (P00636 1-338 L57A): T1 sequence (P00636 1-338 K113A) with L57A, A113K
Description: Differential scanning fluorimetry, L56A mutant. The settings on record: enzyme L56A 5 µM, no ligand. The method, then:
as §1

B1: K112A: pig kidney FBPase mutant, lysine to alanine, AMP-binding site (protein, UniProt P00636 2-338, looked up, variant K112A)
Fructose-1,6-bisphosphatase 1: TDQAAFDTNIVTLTRFVMEEGRKARGTGEMTQLLNSLCTAVKAISTAVRKAGIAHLYGIAGSTNVTGDQVKKLDVLSNDLVINVLKSSFATCVLVSEEDKNAIIVEPEKRGAYVVCFDPLDGSSNIDCLVSIGTIFGIYRKNSTDEPSEKDALQPGRNLVAAGYALYGSATMLVLAMVNGVNCFMLDPAIGEFILVDRDVKIKKKGSIYSINEGYAKEFDPAITEYIQRKKFPPDNSAPYGARYVGSMVADVHRTLVYGGIFMYPANKKSPKGKLRLLYECNPMAYVMEKAGGLATTGKEAVLDIVPTDIHQRAPIILGSPEDVTELLEIYQKHAAK
With B1, the “melting point, No Ligand” value with pig kidney FBPase K112A (enzyme K112A 5 µM) was 51.0 (± 2.50) °C. Moreover, the “decrease in melting temperature compared with WT” value in the data set with pig kidney FBPase K112A (enzyme K112A) is given as “approximately 6 °”.

B2: Y164A: pig kidney FBPase mutant, tyrosine to alanine, interfacial (protein, UniProt P00636 2-338, looked up, variant Y164A)
Fructose-1,6-bisphosphatase 1: B1 Fructose-1,6-bisphosphatase 1 with A112K, Y164A
As to B2, the “melting point, No Ligand” value with pig kidney FBPase Y164A is 55.4 (± 2.25) °C.

B3: M177A: pig kidney FBPase mutant, methionine to alanine, interfacial (protein, UniProt P00636 2-338, looked up, variant M177A)
Fructose-1,6-bisphosphatase 1: B1 Fructose-1,6-bisphosphatase 1 with A112K, M177A
For the molecule B3, the “melting point, No Ligand” value with pig kidney FBPase M177A was 54.2 (± 1.75) °C.

B4: WT: recombinant wild-type pig kidney FBPase enzyme (protein, UniProt P00636 2-338, looked up)
Fructose-1,6-bisphosphatase 1: B1 Fructose-1,6-bisphosphatase 1 with A112K
For B4, the “melting point, No Ligand” value with pig kidney FBPase WT is 56.0 (± 2.75) °C.

B5: M248D: pig kidney FBPase active site mutant Met^248 to aspartic acid (protein, UniProt P00636 2-338, looked up, variant M248D)
Fructose-1,6-bisphosphatase 1: B1 Fructose-1,6-bisphosphatase 1 with A112K, M248D
As for B5, in the data set with pig kidney FBPase M248D, the “melting point, No Ligand” value was 62.0 (± 1.25) °C.

B6: Y113A: pig kidney FBPase mutant, tyrosine to alanine, AMP-binding site (protein, UniProt P00636 2-338, looked up, variant Y113A)
Fructose-1,6-bisphosphatase 1: B1 Fructose-1,6-bisphosphatase 1 with A112K, Y113A
As for B6, in the data set with pig kidney FBPase Y113A (enzyme Y113A 5 µM), the “melting point, No Ligand” value was 50.0 (± 2.25) °C. Further, in the data set with pig kidney FBPase Y113A (enzyme Y113A), the “decrease in melting temperature compared with WT” value is on record as “approximately 6 °”.

B7: L73A: pig kidney FBPase mutant Leu^73 to alanine, near PFE tetramer interface site (protein, UniProt P00636 2-338, looked up, variant L73A)
Fructose-1,6-bisphosphatase 1: B1 Fructose-1,6-bisphosphatase 1 with L73A, A112K
On to B7, for which the “melting point, No Ligand” value with pig kidney FBPase L73A is 55.8 (± 2.50) °C.

B8: L56A: pig kidney FBPase mutant Leu^56 to alanine, near PFE tetramer interface site (protein, UniProt P00636 2-338, looked up, variant L56A)
Fructose-1,6-bisphosphatase 1: B1 Fructose-1,6-bisphosphatase 1 with L56A, A112K
Consider B8, for which the “melting point, No Ligand” value with pig kidney FBPase L56A is 56.0 (± 3.00) °C.
